Laboratory results published in US20110118131A1 (published 2011).

B1: XPA23 light chain A51D (Fab, V domains shown)
VH: EVQLLESGGGLVQPGGSLRLSCAASGFTFSKYFMFWVRQAPGKGLEWVSVISPSGGMTRYADSVKGRFTISRDNSKNTLYLQMNSLRAEDTAVYYCARVGYGGNSDYWGQGTLVTVSS
VL: DIQMTQSPSSVSASVGDRLTIICRASQDINRWLAWYQQTPGNAPKLLIHSDTSLQSGVPSRFSGSGSGTDFTLTINSLQPEDFATYYCQQADSFPLTFGGGTKVEIK
B2: XPA23 Fab, heavy chain Y101R (Fab, V domains shown)
VH: EVQLLESGGGLVQPGGSLRLSCAASGFTFSKYFMFWVRQAPGKGLEWVSVISPSGGMTRYADSVKGRFTISRDNSKNTLYLQMNSLRAEDTAVYYCARVGRGGNSDYWGQGTLVTVSS
VL: DIQMTQSPSSVSASVGDRLTIICRASQDINRWLAWYQQTPGNAPKLLIHSATSLQSGVPSRFSGSGSGTDFTLTINSLQPEDFATYYCQQADSFPLTFGGGTKVEIK
B3: XPA23 Fab, heavy chain Y107R (Fab, V domains shown)
VH: EVQLLESGGGLVQPGGSLRLSCAASGFTFSKYFMFWVRQAPGKGLEWVSVISPSGGMTRYADSVKGRFTISRDNSKNTLYLQMNSLRAEDTAVYYCARVGYGGNSDRWGQGTLVTVSS
VL: DIQMTQSPSSVSASVGDRLTIICRASQDINRWLAWYQQTPGNAPKLLIHSATSLQSGVPSRFSGSGSGTDFTLTINSLQPEDFATYYCQQADSFPLTFGGGTKVEIK
B4: XPA23 Fab, heavy chain Y107F (Fab, V domains shown)
VH: EVQLLESGGGLVQPGGSLRLSCAASGFTFSKYFMFWVRQAPGKGLEWVSVISPSGGMTRYADSVKGRFTISRDNSKNTLYLQMNSLRAEDTAVYYCARVGYGGNSDFWGQGTLVTVSS
VL: DIQMTQSPSSVSASVGDRLTIICRASQDINRWLAWYQQTPGNAPKLLIHSATSLQSGVPSRFSGSGSGTDFTLTINSLQPEDFATYYCQQADSFPLTFGGGTKVEIK
B5: XPA23 Fab, heavy chain Y101N (Fab, V domains shown)
VH: EVQLLESGGGLVQPGGSLRLSCAASGFTFSKYFMFWVRQAPGKGLEWVSVISPSGGMTRYADSVKGRFTISRDNSKNTLYLQMNSLRAEDTAVYYCARVGNGGNSDYWGQGTLVTVSS
VL: DIQMTQSPSSVSASVGDRLTIICRASQDINRWLAWYQQTPGNAPKLLIHSATSLQSGVPSRFSGSGSGTDFTLTINSLQPEDFATYYCQQADSFPLTFGGGTKVEIK
B6: XPA23 Fab, heavy chain Y101Q (Fab, V domains shown)
VH: EVQLLESGGGLVQPGGSLRLSCAASGFTFSKYFMFWVRQAPGKGLEWVSVISPSGGMTRYADSVKGRFTISRDNSKNTLYLQMNSLRAEDTAVYYCARVGQGGNSDYWGQGTLVTVSS
VL: DIQMTQSPSSVSASVGDRLTIICRASQDINRWLAWYQQTPGNAPKLLIHSATSLQSGVPSRFSGSGSGTDFTLTINSLQPEDFATYYCQQADSFPLTFGGGTKVEIK
B7: XPA23 Fab, heavy chain Y107E (Fab, V domains shown)
VH: EVQLLESGGGLVQPGGSLRLSCAASGFTFSKYFMFWVRQAPGKGLEWVSVISPSGGMTRYADSVKGRFTISRDNSKNTLYLQMNSLRAEDTAVYYCARVGYGGNSDEWGQGTLVTVSS
VL: DIQMTQSPSSVSASVGDRLTIICRASQDINRWLAWYQQTPGNAPKLLIHSATSLQSGVPSRFSGSGSGTDFTLTINSLQPEDFATYYCQQADSFPLTFGGGTKVEIK
B8: XPA23 Fab, heavy chain Y107N (Fab, V domains shown)
VH: EVQLLESGGGLVQPGGSLRLSCAASGFTFSKYFMFWVRQAPGKGLEWVSVISPSGGMTRYADSVKGRFTISRDNSKNTLYLQMNSLRAEDTAVYYCARVGYGGNSDNWGQGTLVTVSS
VL: DIQMTQSPSSVSASVGDRLTIICRASQDINRWLAWYQQTPGNAPKLLIHSATSLQSGVPSRFSGSGSGTDFTLTINSLQPEDFATYYCQQADSFPLTFGGGTKVEIK
B9: XPA23 Fab, heavy chain Y101D (Fab, V domains shown)
VH: EVQLLESGGGLVQPGGSLRLSCAASGFTFSKYFMFWVRQAPGKGLEWVSVISPSGGMTRYADSVKGRFTISRDNSKNTLYLQMNSLRAEDTAVYYCARVGDGGNSDYWGQGTLVTVSS
VL: DIQMTQSPSSVSASVGDRLTIICRASQDINRWLAWYQQTPGNAPKLLIHSATSLQSGVPSRFSGSGSGTDFTLTINSLQPEDFATYYCQQADSFPLTFGGGTKVEIK
B10: XPA23 Fab, heavy chain Y107H (Fab, V domains shown)
VH: EVQLLESGGGLVQPGGSLRLSCAASGFTFSKYFMFWVRQAPGKGLEWVSVISPSGGMTRYADSVKGRFTISRDNSKNTLYLQMNSLRAEDTAVYYCARVGYGGNSDHWGQGTLVTVSS
VL: DIQMTQSPSSVSASVGDRLTIICRASQDINRWLAWYQQTPGNAPKLLIHSATSLQSGVPSRFSGSGSGTDFTLTINSLQPEDFATYYCQQADSFPLTFGGGTKVEIK
B11: XPA23 Fab, heavy chain Y101H (Fab, V domains shown)
VH: EVQLLESGGGLVQPGGSLRLSCAASGFTFSKYFMFWVRQAPGKGLEWVSVISPSGGMTRYADSVKGRFTISRDNSKNTLYLQMNSLRAEDTAVYYCARVGHGGNSDYWGQGTLVTVSS
VL: DIQMTQSPSSVSASVGDRLTIICRASQDINRWLAWYQQTPGNAPKLLIHSATSLQSGVPSRFSGSGSGTDFTLTINSLQPEDFATYYCQQADSFPLTFGGGTKVEIK
B12: XPA23 Fab, heavy chain Y107W (Fab, V domains shown)
VH: EVQLLESGGGLVQPGGSLRLSCAASGFTFSKYFMFWVRQAPGKGLEWVSVISPSGGMTRYADSVKGRFTISRDNSKNTLYLQMNSLRAEDTAVYYCARVGYGGNSDWWGQGTLVTVSS
VL: DIQMTQSPSSVSASVGDRLTIICRASQDINRWLAWYQQTPGNAPKLLIHSATSLQSGVPSRFSGSGSGTDFTLTINSLQPEDFATYYCQQADSFPLTFGGGTKVEIK
B13: XPA23 Fab, heavy chain Y101F (Fab, V domains shown)
VH: EVQLLESGGGLVQPGGSLRLSCAASGFTFSKYFMFWVRQAPGKGLEWVSVISPSGGMTRYADSVKGRFTISRDNSKNTLYLQMNSLRAEDTAVYYCARVGFGGNSDYWGQGTLVTVSS
VL: DIQMTQSPSSVSASVGDRLTIICRASQDINRWLAWYQQTPGNAPKLLIHSATSLQSGVPSRFSGSGSGTDFTLTINSLQPEDFATYYCQQADSFPLTFGGGTKVEIK
B14: XPA23 Fab, heavy chain Y107S (Fab, V domains shown)
VH: EVQLLESGGGLVQPGGSLRLSCAASGFTFSKYFMFWVRQAPGKGLEWVSVISPSGGMTRYADSVKGRFTISRDNSKNTLYLQMNSLRAEDTAVYYCARVGYGGNSDSWGQGTLVTVSS
VL: DIQMTQSPSSVSASVGDRLTIICRASQDINRWLAWYQQTPGNAPKLLIHSATSLQSGVPSRFSGSGSGTDFTLTINSLQPEDFATYYCQQADSFPLTFGGGTKVEIK
B15: XPA23 Fab, heavy chain Y107D (Fab, V domains shown)
VH: EVQLLESGGGLVQPGGSLRLSCAASGFTFSKYFMFWVRQAPGKGLEWVSVISPSGGMTRYADSVKGRFTISRDNSKNTLYLQMNSLRAEDTAVYYCARVGYGGNSDDWGQGTLVTVSS
VL: DIQMTQSPSSVSASVGDRLTIICRASQDINRWLAWYQQTPGNAPKLLIHSATSLQSGVPSRFSGSGSGTDFTLTINSLQPEDFATYYCQQADSFPLTFGGGTKVEIK
B16: XPA23 Fab, heavy chain Y101W (Fab, V domains shown)
VH: EVQLLESGGGLVQPGGSLRLSCAASGFTFSKYFMFWVRQAPGKGLEWVSVISPSGGMTRYADSVKGRFTISRDNSKNTLYLQMNSLRAEDTAVYYCARVGWGGNSDYWGQGTLVTVSS
VL: DIQMTQSPSSVSASVGDRLTIICRASQDINRWLAWYQQTPGNAPKLLIHSATSLQSGVPSRFSGSGSGTDFTLTINSLQPEDFATYYCQQADSFPLTFGGGTKVEIK
B17: XPA23 light chain A51E (Fab, V domains shown)
VH: EVQLLESGGGLVQPGGSLRLSCAASGFTFSKYFMFWVRQAPGKGLEWVSVISPSGGMTRYADSVKGRFTISRDNSKNTLYLQMNSLRAEDTAVYYCARVGYGGNSDYWGQGTLVTVSS
VL: DIQMTQSPSSVSASVGDRLTIICRASQDINRWLAWYQQTPGNAPKLLIHSETSLQSGVPSRFSGSGSGTDFTLTINSLQPEDFATYYCQQADSFPLTFGGGTKVEIK
B18: XPA23 Fab, heavy chain Y101E (Fab, V domains shown)
VH: EVQLLESGGGLVQPGGSLRLSCAASGFTFSKYFMFWVRQAPGKGLEWVSVISPSGGMTRYADSVKGRFTISRDNSKNTLYLQMNSLRAEDTAVYYCARVGEGGNSDYWGQGTLVTVSS
VL: DIQMTQSPSSVSASVGDRLTIICRASQDINRWLAWYQQTPGNAPKLLIHSATSLQSGVPSRFSGSGSGTDFTLTINSLQPEDFATYYCQQADSFPLTFGGGTKVEIK
B19: XPA23 Fab, heavy chain Y107Q (Fab, V domains shown)
VH: EVQLLESGGGLVQPGGSLRLSCAASGFTFSKYFMFWVRQAPGKGLEWVSVISPSGGMTRYADSVKGRFTISRDNSKNTLYLQMNSLRAEDTAVYYCARVGYGGNSDQWGQGTLVTVSS
VL: DIQMTQSPSSVSASVGDRLTIICRASQDINRWLAWYQQTPGNAPKLLIHSATSLQSGVPSRFSGSGSGTDFTLTINSLQPEDFATYYCQQADSFPLTFGGGTKVEIK
B20: XPA23 Fab, heavy chain Y107K (Fab, V domains shown)
VH: EVQLLESGGGLVQPGGSLRLSCAASGFTFSKYFMFWVRQAPGKGLEWVSVISPSGGMTRYADSVKGRFTISRDNSKNTLYLQMNSLRAEDTAVYYCARVGYGGNSDKWGQGTLVTVSS
VL: DIQMTQSPSSVSASVGDRLTIICRASQDINRWLAWYQQTPGNAPKLLIHSATSLQSGVPSRFSGSGSGTDFTLTINSLQPEDFATYYCQQADSFPLTFGGGTKVEIK
B21: XPA23 light chain A51F (Fab, V domains shown)
VH: EVQLLESGGGLVQPGGSLRLSCAASGFTFSKYFMFWVRQAPGKGLEWVSVISPSGGMTRYADSVKGRFTISRDNSKNTLYLQMNSLRAEDTAVYYCARVGYGGNSDYWGQGTLVTVSS
VL: DIQMTQSPSSVSASVGDRLTIICRASQDINRWLAWYQQTPGNAPKLLIHSFTSLQSGVPSRFSGSGSGTDFTLTINSLQPEDFATYYCQQADSFPLTFGGGTKVEIK

Columns and labels:
IL-1β = target: T1, IL-1β (UniProt P01584 117-269); experiment: Biacore, periplasmic extract
T1 construct: Antigen immobilised on the Biacore chip

IL-1beta = target: T2, IL-1beta (UniProt P01584 117-269); experiment: Biacore
T2 construct: also called IL-1β

Binder	fold difference in affinity vs parental (IL-1beta)	further results
B1	–	fold difference in affinity vs original (IL-1β): 0.13 fold
B2	0.85 fold	–
B3	0.85 fold	–
B4	0.9 fold	–
B5	0.06 fold	–
B6	0.06 fold	–
B7	0.9 fold	–
B8	–	binding result (IL-1beta): no binding
B9	–	binding result (IL-1beta): no binding
B10	–	binding result (IL-1beta): no binding
B11	0.04 fold	–
B12	0.89 fold	–
B13	0.85 fold	–
B14	0.89 fold	–
B15	0.85 fold	–
B16	0.81 fold	–
B17	–	fold difference in affinity vs original (IL-1β): 0.29 fold
B18	0.03 fold	–
B19	0.87 fold	–
B20	0.82 fold	–
B21	–	binding result (IL-1β): no binding
